# Data reported in the supplement of paper PMC10567573.
# B1: ZNF449 (parent)
# chain: HTGERPYECTVCKKRFTRRSHLIG
# B2: KRT13 (parent)
# chain: TSSASVTTTSNASGRRTSDVRRP
# Variants of: B1
# Experiment: protein stability index of a GFP-peptide fusion (GPS, HEK-293T) (PSI 1-6); higher = more stable
# Settings: c terminus: a fixed tail appended
# 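Note: lentivirally expressed fusions sorted by FACS into six bins by GFP to DsRed ratio, PSI derived from sequencing read proportions per bin multiplied by bin number.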
row,Variant,protein stability index
1,T10I,3.07
2,T10P,1.82
3,T10Y,3.04
4,T10D,1.97
5,T10F,2.88
6,T10V,1.39
7,T10A,2.42
8,T10S,2.52
9,T10L,2.37
10,F16W,1.96
11,F16T,2
12,F16R,2.89
13,F16I,1.71
14,F16Q,2.4
15,F16M,1.89
16,L22D,2.6
17,L22M,1.86
18,L22N,2.08
19,L22R,3.15
20,L22F,1.3
21,L22Y,2.33
22,L22S,2.92
23,R18H,1.76
24,R18D,2.88
25,R18A,2.13

row,Variant,protein stability index
1,R18T,1.97
2,R18Q,1.81
3,R18V,1.59
4,R18N,1.62
5,R18G,2.12
6,K13D,2.91
7,K13Y,2.47
8,K13V,3.25
9,K13T,2.33
10,K13I,2.06
11,K13G,1.52
12,K13E,2.42
13,K13M,1.62
14,K13N,1.78
15,K13L,2.09
16,K13F,2
17,H21R,2.37
18,H21Y,2.35
19,H21T,2.83
20,H21P,3.26
21,H21V,2.97
22,H21L,3.45
23,H21D,2.27
24,H21I,1.56
25,H21E,2.31

row,Variant,protein stability index
1,H21W,2.78
2,H21C,2.1
3,H21Q,1.82
4,C9F,2.39
5,C9W,3.62
6,C9T,3.14
7,C9D,4.05
8,C9G,3.94
9,C9N,3.63
10,C9P,3.7
11,C9Q,3.64
12,C9K,3.97
13,C9V,3.01
14,S20W,3.27
15,S20R,2.9
16,S20C,1.86
17,S20K,2.26
18,S20D,2.46
19,S20V,1.99
20,S20M,2.21
21,S20Y,3.34
22,S20L,2.44
23,I23A,2.64
24,I23D,2.8
25,I23T,2.41

row,Variant,protein stability index
1,I23R,3.41
2,I23M,1.7
3,E4P,2.04
4,E4D,1.82
5,E4I,1.66
6,E4A,1.42
7,E4Y,1.58
8,E4G,1.55
9,E4H,2.17
10,H1T,1.7
11,H1E,2.6
12,H1Y,2.98
13,H1W,2
14,H1A,2.47
15,H1I,1.74
16,R15Y,1.09
17,R15C,2.23
18,R15S,1.52
19,R15L,1.39
20,R15V,2.16
21,R15M,2.51
22,R15Q,1.79
23,R15H,3.03
24,E8S,2.32
25,E8W,2.23

row,Variant,protein stability index
1,E8G,1.84
2,E8D,2.72
3,E8I,2.74
4,E8Q,2.76
5,E8V,2.35
6,E8K,1.96
7,E8C,2.38
8,R5Q,2.23
9,R5S,2.7
10,R5A,1.96
11,R5P,2.01
12,R5T,3
13,R5M,2.24
14,R5Y,2.82
15,R5G,2.24
16,R5C,3.5
17,T2G,2.55
18,T2C,1.42
19,T2M,1.76
20,T2L,2.45
21,T2Q,2.24
22,T2E,2.94
23,T2I,1.47
24,T2Y,1.9
25,K14I,2.26

row,Variant,protein stability index
1,K14G,1.44
2,K14S,2.27
3,K14M,1.61
4,K14R,1.53
5,Y7E,2.88
6,Y7T,2.71
7,Y7R,2.12
8,Y7L,3.39
9,Y7G,2.01
10,Y7S,2.28
11,Y7I,2.62
12,Y7H,2.06
13,C12M,4.64
14,C12L,1.55
15,C12N,3.42
16,C12H,3.73
17,C12V,2.76
18,C12K,3.98
19,T17D,1.9
20,T17V,1.92
21,T17M,1.22
22,T17S,1.94
23,T17W,2.03
24,T17P,1.78
25,T17K,2.52

row,Variant,protein stability index
1,T17R,2.95
2,P6T,2.58
3,P6A,2.67
4,P6W,2.38
5,P6G,2.77
6,P6L,1.58
7,P6R,1.82
8,P6D,2.52
9,P6F,1.75
10,P6I,2.08
11,V11I,1.58
12,V11W,2.6
13,V11L,2.08
14,V11T,3.47
15,V11N,2.8
16,V11P,2.58
17,V11F,1.47
18,V11K,3.82
19,G3L,3.83
20,G3K,2.2
21,G3T,2.12
22,G3M,2.38
23,G3H,3.28
24,G3P,2.52
25,G24T,2.45

row,Variant,protein stability index
1,G24K,3.12
2,G24P,1.95
3,G24R,2.39
4,G24F,1.2
5,G24A,2.27
6,G24C,2.48
7,G24W,2.53
8,G24M,1.83
9,R19Q,2.34
10,R19C,4.07
11,R19E,2.01
12,R19P,1.94
13,R19D,1.62
14,R19W,2.52
15,R19M,1.53
16,R19L,1.53
17,R19I,1.39
18,R19Y,2.1
19,R19G,2.22

# Variants of: B2
# Experiment: as above
# Settings: c terminus: native
row,Variant,protein stability index
1,T17E,1.63
2,T17I,3.61
3,T17C,2.94
4,T17L,1.45
5,T17H,2.66
6,T17Y,2.3
7,T17D,2.62
8,T17M,2.44
9,T17S,2.16
10,T17N,2.15
11,R22S,1.88
12,R22Y,1.75
13,R22D,1.93
14,R22P,2.62
15,R22T,1.84
16,R22A,2.49
17,R22M,3.05
18,R22I,2.77
19,R22W,2.04
20,R22L,1.38
21,R22E,1.75
22,R22H,3.45
23,R22N,3.07
24,R22Q,2.71

row,Variant,protein stability index
1,R22K,2.13
2,R22V,2.08
3,S18A,4.56
4,S18K,1.3
5,S18D,2.19
6,S18P,2.02
7,S18V,3.51
8,S18T,2.85
9,S18E,2.45
10,S18G,1.23
11,S18L,2.03
12,S18F,1.56
13,S18Q,2.82
14,S18M,1.77
15,R21Q,5.75
16,R21L,4.89
17,R21K,5.25
18,R21M,5.27
19,R21D,5.12
20,R21V,4.97
21,R21A,5.32
22,R21C,4.97
23,R21F,5.07
24,R21W,5.35

row,Variant,protein stability index
1,R21E,5.51
2,R21T,5.55
3,R21I,4.91
4,R21N,5.24
5,R21S,5.41
6,R21Y,5.15
7,R21H,5.55
8,R21P,5.33
9,G14V,2.64
10,G14L,3.71
11,G14M,3.29
12,G14S,3.57
13,G14N,2.03
14,G14P,1.88
15,G14T,2.3
16,G14Q,2.23
17,G14Y,2.32
18,G14R,2.21
19,R16H,2.37
20,R16M,2.14
21,R16P,2.52
22,R16A,1.65
23,R16Q,1.52
24,R16Y,3.97

row,Variant,protein stability index
1,R16D,1.66
2,R16I,2.33
3,R16W,2.87
4,R16F,2.27
5,R16E,2.08
6,R16N,2.05
7,R16C,1.27
8,R16S,2.11
9,R16K,1.59
10,R16G,1.04
11,R16T,3.07
12,R15E,2.43
13,R15Y,2.03
14,R15K,1.49
15,R15Q,2.53
16,R15L,2.37
17,R15N,2.6
18,R15C,2.17
19,R15I,2.36
20,R15F,1.88
21,R15T,1.94
22,R15H,2.61
23,R15D,2.25
24,R15P,1.73

row,Variant,protein stability index
1,R15A,2.17
2,D19K,2.25
3,D19S,2.07
4,D19L,2.61
5,D19M,3.59
6,D19Y,1.92
7,D19P,2.86
8,D19F,2.83
9,D19H,1.73
10,D19C,2.52
11,D19I,2.44
12,D19T,2.69
13,D19V,3.02
14,D19R,2.08
15,D19N,2.26
16,V20T,4.51
17,V20G,2.03
18,V20P,2.31
19,V20A,1.63
20,V20N,2.13
21,V20E,2.52
22,V20K,2.73
23,V20D,1.76
24,V20Y,2.38

row,Variant,protein stability index
1,V20C,2.16
2,V20Q,2.06
3,V20H,2.51
4,V20I,4.34
5,P23I,4.47
6,P23S,2.36
7,P23Q,3.43
8,P23F,4.92
9,P23Y,4.86
10,P23R,3.9
11,P23H,1.77
12,P23T,4.53
13,P23L,4.45
14,P23M,4.45
15,P23C,2.42
16,P23N,2.27
17,P23K,4.84
18,P23G,3.15
19,P23W,4.6
20,P23E,1.59
